Legend:
[1] = target: JAK2 immunoprecipitated from BMMC lysates (tyrosine-phosphorylated) (UniProt Q62120)
[2] = target: Lyn immunoprecipitated from BMMC lysates (UniProt P25911)
[3] = target: JAK1 immunoprecipitated from BMMC lysates (UniProt P52332)
[4] = target: STAT5 immunoprecipitated from BMMC lysates (UniProt Q9JIA0)
[5] = target: Tyk2 immunoprecipitated from macrophage lysates (UniProt Q9R117)
[6] = target: STAT3 immunoprecipitated from BMMC lysates (UniProt P42227)
Chain of STAT3 immunoprecipitated from BMMC lysates (P42227 2-770): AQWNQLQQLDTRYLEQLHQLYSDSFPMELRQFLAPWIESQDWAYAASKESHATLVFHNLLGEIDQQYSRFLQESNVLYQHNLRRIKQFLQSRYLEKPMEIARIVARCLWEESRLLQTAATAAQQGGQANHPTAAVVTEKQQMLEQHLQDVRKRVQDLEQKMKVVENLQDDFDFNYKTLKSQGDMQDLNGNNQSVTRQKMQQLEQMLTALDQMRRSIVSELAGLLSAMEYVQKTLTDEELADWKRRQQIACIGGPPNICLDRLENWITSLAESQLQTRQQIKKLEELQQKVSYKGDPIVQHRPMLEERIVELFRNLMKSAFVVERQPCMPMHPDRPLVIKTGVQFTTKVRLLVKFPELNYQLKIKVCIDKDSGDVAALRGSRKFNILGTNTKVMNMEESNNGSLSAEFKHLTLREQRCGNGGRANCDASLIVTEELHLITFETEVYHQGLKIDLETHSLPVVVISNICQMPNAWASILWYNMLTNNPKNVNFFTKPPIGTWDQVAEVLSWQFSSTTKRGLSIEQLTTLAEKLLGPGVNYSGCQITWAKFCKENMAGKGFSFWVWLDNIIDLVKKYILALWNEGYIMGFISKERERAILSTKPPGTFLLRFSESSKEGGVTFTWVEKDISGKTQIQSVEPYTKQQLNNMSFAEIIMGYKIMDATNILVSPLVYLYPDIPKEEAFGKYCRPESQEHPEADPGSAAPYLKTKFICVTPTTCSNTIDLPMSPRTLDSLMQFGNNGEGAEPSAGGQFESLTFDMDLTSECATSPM

Chain of JAK2 immunoprecipitated from BMMC lysates (tyrosine-phosphorylated) (Q62120 whole entry): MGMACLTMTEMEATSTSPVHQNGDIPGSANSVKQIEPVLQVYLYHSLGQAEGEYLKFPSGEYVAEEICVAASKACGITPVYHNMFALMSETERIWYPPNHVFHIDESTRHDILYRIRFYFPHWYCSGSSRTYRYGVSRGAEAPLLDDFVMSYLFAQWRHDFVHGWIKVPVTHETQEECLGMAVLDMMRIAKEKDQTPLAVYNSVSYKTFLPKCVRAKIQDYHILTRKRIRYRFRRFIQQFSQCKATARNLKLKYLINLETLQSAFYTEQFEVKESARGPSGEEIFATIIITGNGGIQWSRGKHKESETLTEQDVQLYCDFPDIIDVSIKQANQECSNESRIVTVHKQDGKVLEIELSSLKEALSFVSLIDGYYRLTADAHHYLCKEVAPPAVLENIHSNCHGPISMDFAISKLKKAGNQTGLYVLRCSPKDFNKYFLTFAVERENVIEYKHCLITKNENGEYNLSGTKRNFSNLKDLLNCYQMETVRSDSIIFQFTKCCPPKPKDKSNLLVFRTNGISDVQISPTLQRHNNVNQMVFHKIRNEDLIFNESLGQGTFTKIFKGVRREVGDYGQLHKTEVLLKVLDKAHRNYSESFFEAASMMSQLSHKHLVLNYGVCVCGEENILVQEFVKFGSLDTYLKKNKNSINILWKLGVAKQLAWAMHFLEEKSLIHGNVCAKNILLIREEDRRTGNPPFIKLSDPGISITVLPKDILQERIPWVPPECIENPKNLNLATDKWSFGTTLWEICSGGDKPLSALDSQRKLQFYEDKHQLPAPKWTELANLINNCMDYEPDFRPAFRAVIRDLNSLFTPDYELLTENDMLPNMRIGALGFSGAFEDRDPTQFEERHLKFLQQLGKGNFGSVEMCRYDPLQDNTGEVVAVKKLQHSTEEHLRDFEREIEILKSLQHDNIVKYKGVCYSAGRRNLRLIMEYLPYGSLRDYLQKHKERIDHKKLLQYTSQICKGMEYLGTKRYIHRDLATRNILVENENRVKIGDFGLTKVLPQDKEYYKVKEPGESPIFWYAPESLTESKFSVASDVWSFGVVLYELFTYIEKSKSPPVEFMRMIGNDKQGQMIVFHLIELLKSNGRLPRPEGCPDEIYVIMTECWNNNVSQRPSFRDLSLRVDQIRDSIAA
Chain of Lyn immunoprecipitated from BMMC lysates (P25911 2-512): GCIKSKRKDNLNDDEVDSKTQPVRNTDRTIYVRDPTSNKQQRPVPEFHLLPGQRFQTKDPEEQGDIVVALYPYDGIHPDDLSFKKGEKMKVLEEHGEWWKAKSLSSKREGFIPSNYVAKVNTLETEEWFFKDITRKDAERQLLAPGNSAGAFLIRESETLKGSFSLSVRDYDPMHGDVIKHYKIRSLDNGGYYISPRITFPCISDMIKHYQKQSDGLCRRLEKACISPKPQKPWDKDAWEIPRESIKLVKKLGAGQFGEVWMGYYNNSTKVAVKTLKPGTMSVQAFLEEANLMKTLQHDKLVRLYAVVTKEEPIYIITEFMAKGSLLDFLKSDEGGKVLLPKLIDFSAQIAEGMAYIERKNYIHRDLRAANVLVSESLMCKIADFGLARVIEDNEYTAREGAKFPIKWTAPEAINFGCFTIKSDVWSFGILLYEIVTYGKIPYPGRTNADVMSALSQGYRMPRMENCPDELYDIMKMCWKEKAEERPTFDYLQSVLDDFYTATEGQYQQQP
Chain of JAK1 immunoprecipitated from BMMC lysates (P52332 whole entry): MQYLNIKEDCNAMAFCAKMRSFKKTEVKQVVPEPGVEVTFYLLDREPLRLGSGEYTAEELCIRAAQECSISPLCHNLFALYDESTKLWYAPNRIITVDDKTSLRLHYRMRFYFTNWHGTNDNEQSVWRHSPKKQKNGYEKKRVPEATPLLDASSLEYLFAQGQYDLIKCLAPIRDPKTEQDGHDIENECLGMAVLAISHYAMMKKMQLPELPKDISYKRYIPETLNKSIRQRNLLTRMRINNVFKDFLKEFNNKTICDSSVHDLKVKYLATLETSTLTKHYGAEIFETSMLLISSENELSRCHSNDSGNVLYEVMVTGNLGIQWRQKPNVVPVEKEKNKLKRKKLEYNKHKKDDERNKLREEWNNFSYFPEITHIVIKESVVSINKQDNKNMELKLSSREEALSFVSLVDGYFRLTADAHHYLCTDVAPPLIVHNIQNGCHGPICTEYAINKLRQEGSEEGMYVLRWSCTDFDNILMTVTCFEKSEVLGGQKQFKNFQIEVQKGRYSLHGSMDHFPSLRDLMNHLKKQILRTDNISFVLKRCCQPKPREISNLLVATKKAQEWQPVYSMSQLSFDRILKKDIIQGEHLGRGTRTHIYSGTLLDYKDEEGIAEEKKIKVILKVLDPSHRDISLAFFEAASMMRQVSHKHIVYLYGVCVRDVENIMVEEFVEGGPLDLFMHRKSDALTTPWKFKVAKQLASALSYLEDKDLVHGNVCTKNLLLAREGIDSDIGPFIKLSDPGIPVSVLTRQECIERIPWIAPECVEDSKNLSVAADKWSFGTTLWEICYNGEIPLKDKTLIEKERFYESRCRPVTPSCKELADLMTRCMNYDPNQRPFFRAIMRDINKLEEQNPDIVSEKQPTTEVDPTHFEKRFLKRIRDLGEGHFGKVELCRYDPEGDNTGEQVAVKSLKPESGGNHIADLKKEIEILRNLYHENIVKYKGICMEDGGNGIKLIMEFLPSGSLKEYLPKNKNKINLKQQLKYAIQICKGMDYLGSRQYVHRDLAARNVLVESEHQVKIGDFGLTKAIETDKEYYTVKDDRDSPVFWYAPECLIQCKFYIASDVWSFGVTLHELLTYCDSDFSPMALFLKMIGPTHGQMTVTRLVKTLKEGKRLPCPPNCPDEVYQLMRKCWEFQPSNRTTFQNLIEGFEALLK

Substance: PTPase-dead rCD45 (D1:C828S mutant)
- tyrosine dephosphorylation in vitro (phosphatase assay) [1]: PTPase-dead rCD45 (D1:C828S mutant) did not dephosphorylate JAK2

Substance: recombinant CD45 (intracellular dual PTPase domains, Mr 97K, catalytic D1 and non-catalytic D2, lacking extracellular regions)
- tyrosine dephosphorylation in vitro (phosphatase assay, immunoblot) [2]: rCD45 dephosphorylated Lyn in a dose-dependent manner
- dephosphorylation of critical tyrosine residues in vitro (site-specific phospho-specific antibodies) [3]: rCD45 does indeed dephosphorylate the critical tyrosine residues of JAK1, JAK2, and Tyk2 in vitro
- dephosphorylation of critical tyrosine residues in vitro (site-specific phospho-specific antibodies) [1]: rCD45 does indeed dephosphorylate the critical tyrosine residues of JAK1, JAK2, and Tyk2 in vitro
- tyrosine dephosphorylation in vitro (phosphatase assay, immunoblot) [1]: rCD45 did, however, dephosphorylate JAK2 in vitro
- tyrosine dephosphorylation in vitro (phosphatase assay, immunoblot) [4]: tyrosine dephosphorylation of STAT3 (FIGS. 3A and 3B) and STAT5 did not occur after incubation with rCD45, even at high concentrations of rCD45
- dephosphorylation of critical tyrosine residues in vitro (site-specific phospho-specific antibodies) [5]: rCD45 does indeed dephosphorylate the critical tyrosine residues of JAK1, JAK2, and Tyk2 in vitro
- tyrosine dephosphorylation in vitro (phosphatase assay, immunoblot) [6]: tyrosine dephosphorylation of STAT3 (FIGS. 3A and 3B) and STAT5 did not occur after incubation with rCD45, even at high concentrations of rCD45

— patent US20030175270
